Patent publication US6855515

T1: Ac-DEVD-CHO, N-(N-Ac-Asp-Glu-Val)-3-amino-4-oxobutanoic acid
T1 chain: DEVD

T2: PMS2, P54278
T2 chain: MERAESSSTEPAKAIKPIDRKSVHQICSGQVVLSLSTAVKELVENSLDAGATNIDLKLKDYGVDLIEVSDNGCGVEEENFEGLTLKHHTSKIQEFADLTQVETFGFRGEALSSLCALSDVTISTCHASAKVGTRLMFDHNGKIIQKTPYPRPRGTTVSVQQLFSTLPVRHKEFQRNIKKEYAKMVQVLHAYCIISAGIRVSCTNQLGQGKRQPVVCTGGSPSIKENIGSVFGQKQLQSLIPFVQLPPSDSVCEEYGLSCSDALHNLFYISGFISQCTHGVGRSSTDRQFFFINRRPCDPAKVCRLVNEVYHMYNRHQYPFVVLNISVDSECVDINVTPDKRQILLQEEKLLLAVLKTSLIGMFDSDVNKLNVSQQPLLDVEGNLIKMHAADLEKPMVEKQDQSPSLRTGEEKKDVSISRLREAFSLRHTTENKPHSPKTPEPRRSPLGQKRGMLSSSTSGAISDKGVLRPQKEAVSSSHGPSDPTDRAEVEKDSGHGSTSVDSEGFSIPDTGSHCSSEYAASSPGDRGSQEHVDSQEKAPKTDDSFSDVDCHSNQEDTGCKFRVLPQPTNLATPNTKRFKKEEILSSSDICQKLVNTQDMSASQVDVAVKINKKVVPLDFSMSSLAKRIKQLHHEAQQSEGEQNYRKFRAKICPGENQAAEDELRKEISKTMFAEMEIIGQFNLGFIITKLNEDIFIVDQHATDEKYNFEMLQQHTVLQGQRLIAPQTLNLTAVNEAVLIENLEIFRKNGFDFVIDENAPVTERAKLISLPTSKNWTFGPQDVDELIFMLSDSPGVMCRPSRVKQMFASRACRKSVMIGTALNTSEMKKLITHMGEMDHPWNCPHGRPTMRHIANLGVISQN

T3: Topoisomerase I, P11387
T3 chain: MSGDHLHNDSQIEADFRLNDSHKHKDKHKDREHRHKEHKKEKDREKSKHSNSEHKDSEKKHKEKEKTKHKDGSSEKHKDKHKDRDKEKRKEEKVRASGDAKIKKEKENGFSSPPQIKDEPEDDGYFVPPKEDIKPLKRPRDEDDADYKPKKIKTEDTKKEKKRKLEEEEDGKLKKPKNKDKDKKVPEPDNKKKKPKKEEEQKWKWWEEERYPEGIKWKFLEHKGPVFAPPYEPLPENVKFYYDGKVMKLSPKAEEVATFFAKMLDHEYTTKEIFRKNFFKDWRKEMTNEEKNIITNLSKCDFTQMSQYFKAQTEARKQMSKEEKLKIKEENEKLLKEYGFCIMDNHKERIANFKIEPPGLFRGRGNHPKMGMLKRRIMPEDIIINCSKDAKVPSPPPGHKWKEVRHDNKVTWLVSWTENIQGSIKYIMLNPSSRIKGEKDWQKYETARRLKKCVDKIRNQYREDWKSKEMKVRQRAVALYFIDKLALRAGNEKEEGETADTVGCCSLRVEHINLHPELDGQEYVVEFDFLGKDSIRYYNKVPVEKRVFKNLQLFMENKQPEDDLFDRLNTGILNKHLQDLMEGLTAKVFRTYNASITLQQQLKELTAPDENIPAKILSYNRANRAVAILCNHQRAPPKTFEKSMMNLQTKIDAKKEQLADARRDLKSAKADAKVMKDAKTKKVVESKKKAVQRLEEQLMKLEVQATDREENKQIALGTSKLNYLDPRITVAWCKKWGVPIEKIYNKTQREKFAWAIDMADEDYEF

T4: SRP-72, O76094
T4 chain: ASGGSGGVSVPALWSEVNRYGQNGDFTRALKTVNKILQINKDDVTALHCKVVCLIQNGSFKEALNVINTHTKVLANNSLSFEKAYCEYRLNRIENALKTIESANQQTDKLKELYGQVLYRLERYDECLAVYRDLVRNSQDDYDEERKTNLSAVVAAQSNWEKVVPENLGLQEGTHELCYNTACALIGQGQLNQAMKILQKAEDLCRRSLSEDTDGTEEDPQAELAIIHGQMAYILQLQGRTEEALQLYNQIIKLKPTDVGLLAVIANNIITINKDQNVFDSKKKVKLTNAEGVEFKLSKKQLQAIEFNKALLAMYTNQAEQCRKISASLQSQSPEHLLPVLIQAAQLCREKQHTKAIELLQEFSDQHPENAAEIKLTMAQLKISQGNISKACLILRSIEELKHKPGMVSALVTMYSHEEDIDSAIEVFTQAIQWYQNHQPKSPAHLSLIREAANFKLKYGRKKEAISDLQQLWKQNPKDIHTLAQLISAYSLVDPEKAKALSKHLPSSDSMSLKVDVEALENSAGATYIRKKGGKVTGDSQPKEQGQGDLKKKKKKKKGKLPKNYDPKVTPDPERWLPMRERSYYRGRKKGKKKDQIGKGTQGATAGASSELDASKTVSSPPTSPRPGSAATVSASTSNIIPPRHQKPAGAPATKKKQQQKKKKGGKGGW

T5: PMS1, P54277
T5 chain: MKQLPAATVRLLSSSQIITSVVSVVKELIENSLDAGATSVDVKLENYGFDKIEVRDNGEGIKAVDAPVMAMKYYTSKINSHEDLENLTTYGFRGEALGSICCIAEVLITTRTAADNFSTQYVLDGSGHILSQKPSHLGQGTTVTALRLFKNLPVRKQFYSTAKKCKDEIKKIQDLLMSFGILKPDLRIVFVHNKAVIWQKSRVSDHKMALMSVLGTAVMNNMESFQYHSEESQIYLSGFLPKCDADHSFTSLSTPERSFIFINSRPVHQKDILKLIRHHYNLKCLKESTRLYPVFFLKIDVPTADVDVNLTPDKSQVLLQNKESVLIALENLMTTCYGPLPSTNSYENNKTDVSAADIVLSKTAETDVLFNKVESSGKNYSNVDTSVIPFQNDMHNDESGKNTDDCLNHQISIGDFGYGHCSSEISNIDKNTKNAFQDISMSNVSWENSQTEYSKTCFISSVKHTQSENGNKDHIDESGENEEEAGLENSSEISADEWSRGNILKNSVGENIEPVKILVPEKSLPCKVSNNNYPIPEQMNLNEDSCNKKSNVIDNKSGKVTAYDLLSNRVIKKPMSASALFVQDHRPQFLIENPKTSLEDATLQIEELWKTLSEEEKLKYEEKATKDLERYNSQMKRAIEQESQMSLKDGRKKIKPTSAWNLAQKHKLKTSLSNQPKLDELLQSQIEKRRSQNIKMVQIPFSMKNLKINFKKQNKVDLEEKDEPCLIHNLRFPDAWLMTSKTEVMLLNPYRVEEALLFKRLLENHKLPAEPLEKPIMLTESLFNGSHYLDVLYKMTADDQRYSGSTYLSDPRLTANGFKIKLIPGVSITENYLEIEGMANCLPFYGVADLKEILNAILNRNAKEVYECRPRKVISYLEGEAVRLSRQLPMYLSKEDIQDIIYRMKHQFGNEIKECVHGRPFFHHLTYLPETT

B1: caspase-3 (protein)
chain: SGISLDNSYKMDYPEMGLCIIINNKNFHKSTGMTSRSGTDVDAANLRETFRNLKYEVRNKNDLTREEIVELMRDVSKEDHSKRSSFVCVLLSHGEEGIIFGTNGPVDLKKITNFFRGDRCRSLTGKPKLFIIQACRGTELDCGIETDSGVDDDMACHKIPVEADFLYAYSTAPGYYSWRNSKDGSWFIQSLCAMLKQYADKLEFMHILTRVNRKVATEFESFSFDATFHAKKQIPCIVSMLTKELYFYH
B2: caspase-8 (protein)
chain 1: SESQTLDKVYQMKSKPRGYCLIINNHNFAKAREKVPKLHSIRDRNGTHLDAGALTTTFEELHFEIKPHDDCTVEQIYEILKIYQLMDHSNMDCFICCILSHGDKGIIYGTDGQEAPIYELTSQFTGLKCPSLAGKPKVFFIQACQGDNYQKGIPVETD
chain 2: LSSPQTRYIPDEADFLLGMATVNNCVSYRNPAEGTWYIQSLCQSLRERCPRGDDILTILTEVNYEVSNKDDKKNMGKQMPQPTFTLRKKLVFPSD

What was measured:
[1] = target: poly(ADP-ribose) polymerase
[2] = target: T1, Ac-DEVD-CHO, …
[3] = target: nuclear mitotic apparatus protein
[4] = target: RNA polymerase II large subunit, P24928
PMS2, P54278 = target: T2, PMS2, P54278
Topoisomerase I, P11387 = target: T3, Topoisomerase I, P11387
SRP-72, O76094 = target: T4, SRP-72, O76094
PMS1, P54277 = target: T5, PMS1, P54277

Chain of nuclear mitotic apparatus protein (chain, as listed by the source): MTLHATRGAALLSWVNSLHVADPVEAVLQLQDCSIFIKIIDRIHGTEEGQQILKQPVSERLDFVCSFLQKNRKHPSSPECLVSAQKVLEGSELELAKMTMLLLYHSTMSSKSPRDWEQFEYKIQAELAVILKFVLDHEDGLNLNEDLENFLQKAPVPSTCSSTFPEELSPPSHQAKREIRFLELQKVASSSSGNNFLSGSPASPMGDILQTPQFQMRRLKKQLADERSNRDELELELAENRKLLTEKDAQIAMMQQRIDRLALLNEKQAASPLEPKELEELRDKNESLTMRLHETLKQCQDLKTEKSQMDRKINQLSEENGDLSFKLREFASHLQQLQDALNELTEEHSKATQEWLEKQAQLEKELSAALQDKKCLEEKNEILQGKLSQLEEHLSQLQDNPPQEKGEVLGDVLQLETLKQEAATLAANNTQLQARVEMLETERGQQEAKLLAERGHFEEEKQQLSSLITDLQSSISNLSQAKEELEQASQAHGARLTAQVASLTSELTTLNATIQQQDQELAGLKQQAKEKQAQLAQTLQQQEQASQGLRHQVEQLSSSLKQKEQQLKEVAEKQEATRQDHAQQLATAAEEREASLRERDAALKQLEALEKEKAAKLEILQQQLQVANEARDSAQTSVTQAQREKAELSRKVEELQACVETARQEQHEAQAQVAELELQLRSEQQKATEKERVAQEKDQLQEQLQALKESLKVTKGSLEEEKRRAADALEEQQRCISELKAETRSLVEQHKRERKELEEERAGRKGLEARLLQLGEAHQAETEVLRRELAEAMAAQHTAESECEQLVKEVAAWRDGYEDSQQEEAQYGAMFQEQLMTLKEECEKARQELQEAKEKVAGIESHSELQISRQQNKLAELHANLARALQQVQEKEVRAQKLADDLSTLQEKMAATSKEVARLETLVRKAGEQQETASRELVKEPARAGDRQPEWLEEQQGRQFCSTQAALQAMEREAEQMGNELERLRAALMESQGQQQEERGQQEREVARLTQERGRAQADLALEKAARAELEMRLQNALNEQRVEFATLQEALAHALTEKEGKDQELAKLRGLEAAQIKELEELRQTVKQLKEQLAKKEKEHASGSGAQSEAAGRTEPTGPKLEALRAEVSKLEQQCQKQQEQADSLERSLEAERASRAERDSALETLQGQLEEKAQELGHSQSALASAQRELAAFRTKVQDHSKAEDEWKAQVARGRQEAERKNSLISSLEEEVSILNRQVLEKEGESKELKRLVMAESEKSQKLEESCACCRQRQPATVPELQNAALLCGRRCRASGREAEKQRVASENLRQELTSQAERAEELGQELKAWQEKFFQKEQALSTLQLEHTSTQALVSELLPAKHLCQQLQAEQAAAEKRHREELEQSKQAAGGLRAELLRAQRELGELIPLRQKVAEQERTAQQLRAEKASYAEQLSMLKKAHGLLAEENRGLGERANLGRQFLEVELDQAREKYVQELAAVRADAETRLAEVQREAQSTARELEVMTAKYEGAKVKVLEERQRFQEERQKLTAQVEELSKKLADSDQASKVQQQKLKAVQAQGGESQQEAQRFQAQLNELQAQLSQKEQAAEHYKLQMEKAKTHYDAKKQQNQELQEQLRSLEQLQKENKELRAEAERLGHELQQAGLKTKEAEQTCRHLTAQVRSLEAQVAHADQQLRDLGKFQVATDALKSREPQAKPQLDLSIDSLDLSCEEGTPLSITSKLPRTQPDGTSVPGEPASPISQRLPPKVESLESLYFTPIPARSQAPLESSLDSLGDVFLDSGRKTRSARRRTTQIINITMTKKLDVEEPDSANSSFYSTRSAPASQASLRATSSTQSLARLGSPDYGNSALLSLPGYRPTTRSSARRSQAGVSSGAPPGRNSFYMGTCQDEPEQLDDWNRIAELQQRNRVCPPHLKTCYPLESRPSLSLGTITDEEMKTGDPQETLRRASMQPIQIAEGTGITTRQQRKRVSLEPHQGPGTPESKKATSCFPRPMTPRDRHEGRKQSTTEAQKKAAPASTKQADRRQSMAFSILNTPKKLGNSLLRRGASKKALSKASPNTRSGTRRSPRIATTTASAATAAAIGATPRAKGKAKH
Chain of U1-70 kDa, P08621 (P08621 whole entry): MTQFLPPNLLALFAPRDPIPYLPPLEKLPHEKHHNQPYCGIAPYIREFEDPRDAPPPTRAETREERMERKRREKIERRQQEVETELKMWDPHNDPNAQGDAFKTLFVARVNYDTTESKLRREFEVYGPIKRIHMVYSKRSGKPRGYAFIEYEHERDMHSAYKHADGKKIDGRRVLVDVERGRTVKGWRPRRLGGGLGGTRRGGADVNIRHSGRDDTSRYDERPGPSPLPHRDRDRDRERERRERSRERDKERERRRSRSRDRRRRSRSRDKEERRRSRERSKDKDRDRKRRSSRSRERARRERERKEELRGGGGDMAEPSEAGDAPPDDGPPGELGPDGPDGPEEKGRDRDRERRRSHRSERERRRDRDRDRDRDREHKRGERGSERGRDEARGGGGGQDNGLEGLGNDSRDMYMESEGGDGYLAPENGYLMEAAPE
Chain of Ku-70, P12956 (P12956 2-609): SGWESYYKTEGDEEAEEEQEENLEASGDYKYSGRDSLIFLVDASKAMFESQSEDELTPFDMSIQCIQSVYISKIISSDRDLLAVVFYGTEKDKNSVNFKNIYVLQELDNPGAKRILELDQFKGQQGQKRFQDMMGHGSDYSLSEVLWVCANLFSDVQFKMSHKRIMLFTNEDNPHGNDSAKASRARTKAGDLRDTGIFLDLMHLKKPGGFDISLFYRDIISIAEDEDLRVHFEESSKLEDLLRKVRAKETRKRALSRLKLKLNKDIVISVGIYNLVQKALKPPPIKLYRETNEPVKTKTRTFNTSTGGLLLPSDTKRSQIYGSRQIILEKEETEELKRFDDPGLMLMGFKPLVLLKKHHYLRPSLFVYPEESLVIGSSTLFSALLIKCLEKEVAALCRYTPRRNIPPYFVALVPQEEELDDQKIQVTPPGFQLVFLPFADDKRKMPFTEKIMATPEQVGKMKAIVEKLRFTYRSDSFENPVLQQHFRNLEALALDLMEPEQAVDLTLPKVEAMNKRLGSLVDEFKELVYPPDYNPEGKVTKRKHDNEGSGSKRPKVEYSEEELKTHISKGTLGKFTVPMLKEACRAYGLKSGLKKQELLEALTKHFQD

| Protein | kcat/Km [1] [M⁻¹ s⁻¹] | generation of caspase-3 substrate fragments in HeLa lysate, immunoblotting [2] | kcat/Km [3] [M⁻¹ s⁻¹] | cleavage in iodoacetamide-treated HeLa lysate with 50 nM caspase-8 (Mi-2) | cleavage in iodoacetamide-treated HeLa lysate with 50 nM caspase-8 [4] | cleavage in iodoacetamide-treated HeLa lysate with 50 nM caspase-8 [1] | cleavage in iodoacetamide-treated HeLa lysate with 50 nM caspase-8 (U1-70 kDa, P08621) | cleavage of radiolabelled IvTT protein (PMS2, P54278) | cleavage in iodoacetamide-treated HeLa lysate with 50 nM caspase-8 (Ki-67, P46013) | cleavage in iodoacetamide-treated HeLa lysate with 50 nM caspase-8 (Ku-70, P12956) | cleavage in iodoacetamide-treated HeLa lysate with 50 nM caspase-8 (Topoisomerase I, P11387) | cleavage in iodoacetamide-treated HeLa lysate with 50 nM caspase-8 [3] | cleavage in iodoacetamide-treated HeLa lysate with 50 nM caspase-8 (SRP-72, O76094) | cleavage of radiolabelled IvTT protein (PMS1, P54277) |
| --- | --- | --- | --- | --- | --- | --- | --- | --- | --- | --- | --- | --- | --- | --- |
| B1 | 5e+06 | entirely abolished by 100 nM Ac-DEVD-CHO | 500000 | – | – | – | – | – | – | – | – | – | – | – |
| B2 | – | – | – | No cleavage | No cleavage | No cleavage | No cleavage | also not cleaved by purified caspase-8 | No cleavage | No cleavage | No cleavage | No cleavage | No cleavage | also not cleaved by purified caspase-8 |
